Drawing on the RNAGym collection of RNA variant scans (doi:10.1093/molbev/msab373), this text covers reverse-splicing fitness for 84 variants.

Sequences and labels used below:
B1: Azoarcus group I ribozyme (parent)
chain: GUGCCUUGCGCCGGGAAACCACGCAAGGGAUGGUGUCAAAUUCGGCGAAACCUAAGCGCCCGCCCGGGCGUAUGGCAACGCCGAGCCAAGCUUCGGCGCCUGCGCCGAUGAAGGUGUAGAGACUAGACGGCACCCACCUAAGGCAAACGCUAUGGUGAAGGCAUAGUCCAGGGAGUGGCGAAAGUCACACAAACCGG

This series covers variants of B1. As to the kind of experiment: reverse-splicing fitness (ratio to wild type); higher = more active; in vitro selection; Mg2+ level not given. The gist of the method:
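An in vitro group I ribozyme library with randomized positions was T7-transcribed and gel-purified. In triplicate, 10 pmol RNA in EPPS pH 7.5 was reacted with 50 pmoles of a 30-nt RNA substrate for 1 h at 37 °C across several added MgCl2 levels (1–48 mM), then stopped with EDTA. Products were reverse transcribed from a substrate-complementary primer, PCR-amplified and sequenced (HiSeq 4000). Fitness is a variant's read proportion after selection over that before, normalised to wild type.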
Take C82U A111C A120U A145G C169A: the reverse-splicing fitness came to 0.00276. Then C82U A111C A120U A145G C169U, with 0.00448.

Regarding C82U A111C A120U C150U C169U U176A, the reverse-splicing fitness amounted to 0.00612. Turning to C82U A111C A120U C150U C169U U176C, the reverse-splicing fitness was determined as 0.00387. As to C82U A111C A120U C150U C169U U176G, the reverse-splicing fitness came to 0.00197. Consider C82U A111C A145C C150A C169G, for which the reverse-splicing fitness is 0.00773. Under C82U A111C A145C C150A C169U stands 0.00887. Take C82U A111C A145C C150A C169A: the reverse-splicing fitness worked out at 0.00786.

On to C82U A111C A120U A145U C169A U176G, for which the reverse-splicing fitness was found to be 0.00168. Under C82U A111C A120U A145U C169A U176C stands 0.00251. As for C82U A111C A120U A145U C169A U176A, the reverse-splicing fitness was determined as 0.00299. Then C82U A111C A120U A145G C169G U176G, with 0.0017; and C82U A111C A120U A145G C169G U176A, with 0.00323. Turning to C82U A111C A120U A145G C169G U176C, the reverse-splicing fitness turned out to be 0.00344. As for C82U A111C A120U A145U C150A, the reverse-splicing fitness came out at 0.00535. For C82U A111C A120U A145U C150U, the reverse-splicing fitness was 0.0186. Consider C82U A111C A120U A145U C150G, for which the reverse-splicing fitness was found to be 0.00613. Under C82U A111C A145C C169U stands 0.0113; under C82U A111C A145C C169A, 0.00714. Consider C82U A111C A145C C169G, for which the reverse-splicing fitness amounted to 0.00983. Under C82U A111C A145C C150G stands 0.024; under C82U A111C A145C C150U, 0.0562; under C82U A111C A145C C150A, 0.0154. With C82U A111C A145U C150A U176C, the reverse-splicing fitness was 0.022.

For C82U A111C A145U C150A U176G, the reverse-splicing fitness was 0.00817.

Turning to C82U A111C A145U C150A U176A, the reverse-splicing fitness amounted to 0.0153.

Regarding C82U A111C A145G C150G C169U U176A, the reverse-splicing fitness was found to be 0.0102. Under C82U A111C A145G C150G C169U U176G stands 0.0073; under C82U A111C A145G C150G C169U U176C, 0.00994. On to C82U A111C A120U A145G C169A U176A, for which the reverse-splicing fitness was determined as 0.00295.

In the case of C82U A111C A120U A145G C169A U176C, the reverse-splicing fitness worked out at 0.0035. On to C82U A111C A120U A145G C169A U176G, for which the reverse-splicing fitness was found to be 0.00196.

In the case of C82U A111C A120U A145U C150A U176A, the reverse-splicing fitness was 0.00357. Under C82U A111C A120U A145U C150A U176C stands 0.00465; under C82U A111C A120U A145U C150A U176G, 0.00247.

With C82U A111C A145G C169G U176G, the reverse-splicing fitness came to 0.00682. Take C82U A111C A145G C169G U176C: the reverse-splicing fitness amounted to 0.0306. Under C82U A111C A145G C169G U176A stands 0.0236; under C82U A111C A145G C150A C169G U176C, 0.0256. With C82U A111C A145G C150A C169G U176A, the reverse-splicing fitness is 0.014. Consider C82U A111C A145G C150A C169G U176G, for which the reverse-splicing fitness came to 0.00685. Regarding C82U A111C A120U C150U U176G, the reverse-splicing fitness came to 0.00332. Then C82U A111C A120U C150U U176C, with 0.00907; and C82U A111C A120U C150U U176A, with 0.00642. Take C82U A111C A145C C150G C169U U176A: the reverse-splicing fitness was 0.00919. Then C82U A111C A145C C150G C169U U176G, with 0.00606; and C82U A111C A145C C150G C169U U176C, with 0.0106. Then C82U A111C A120U A145U, with 0.0254; and C82U A111C A145G C150U C169A U176A, with 0.0141.

For C82U A111C A145G C150U C169A U176G, the reverse-splicing fitness came to 0.00752.

In the case of C82U A111C A145G C150U C169A U176C, the reverse-splicing fitness was 0.013.

As for C82U A111C A120U A145G C169U U176G, the reverse-splicing fitness was determined as 0.00206. With C82U A111C A120U A145G C169U U176C, the reverse-splicing fitness was 0.00342. Under C82U A111C A120U A145G C169U U176A stands 0.00527. Under C82U A111C A120U C150A C169U U176C stands 0.0037; under C82U A111C A120U C150A C169U U176G, 0.00241; under C82U A111C A120U C150A C169U U176A, 0.00699. Under C82U A111C A145U stands 0.246; under C82U A111C A145C, 0.239; under C82U A111C A145G, 0.266.

For C82U A111C A145G C150U C169G U176G, the reverse-splicing fitness worked out at 0.00674. Regarding C82U A111C A145G C150U C169G U176A, the reverse-splicing fitness worked out at 0.0107. Then C82U A111C A145G C150U C169G U176C, with 0.0158; and C82U A111C A145C C150U C169U U176A, with 0.0154; and C82U A111C A145C C150U C169U U176G, with 0.00631. Under C82U A111C A145C C150U C169U U176C stands 0.00946; under C82U A111C A145G C150G C169G U176C, 0.0117; under C82U A111C A145G C150G C169G U176G, 0.00571. Consider C82U A111C A145G C150G C169G U176A, for which the reverse-splicing fitness is 0.00912. Then C82U A111C A120U C150A C169A U176C, with 0.00354; and C82U A111C A120U C150A C169A U176G, with 0.00303. Then C82U A111C A120U C150A C169A U176A, with 0.00438.

Consider C82U A111C A120U A145U C150G C169U U176A, for which the reverse-splicing fitness was determined as 0.00227. Then C82U A111C A120U A145U C150G C169U U176G, with 0.0025; and C82U A111C A120U A145U C150G C169U U176C, with 0.00264.

In the case of C82U A111C A145G C150U, the reverse-splicing fitness was determined as 0.183.

With C82U A111C A145G C150G, the reverse-splicing fitness was 0.0275.

For C82U A111C A145G C150A, the reverse-splicing fitness is 0.0325. For C82U A111C A120U A145U C150U C169G U176A, the reverse-splicing fitness was 0.00231.

On to C82U A111C A120U A145U C150U C169G U176G, for which the reverse-splicing fitness came to 0.00201.

For C82U A111C A120U A145U C150U C169G U176C, the reverse-splicing fitness was found to be 0.00305.

Turning to C82U A111C A120U C150G C169A, the reverse-splicing fitness came out at 0.00691. As to C82U A111C A120U C150G C169U, the reverse-splicing fitness is 0.00611.

C82U A111C A120U C150G C169G: the reverse-splicing fitness was 0.00621.
